T1: ONECUT2 (OC2) residues 317-417, containing the CUT domain (Homo sapiens (Human), UniProt O95948)
T1 chain: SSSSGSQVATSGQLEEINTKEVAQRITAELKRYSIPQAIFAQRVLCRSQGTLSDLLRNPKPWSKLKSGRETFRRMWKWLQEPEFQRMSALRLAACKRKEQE

T2: OC2 CUT domain (human, UniProt O95948 317-417)
T2 sequence: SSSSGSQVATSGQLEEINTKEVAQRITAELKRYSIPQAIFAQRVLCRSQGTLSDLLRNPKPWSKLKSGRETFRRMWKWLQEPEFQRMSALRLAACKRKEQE

T3: OC2 (CUT-HOX DNA binding region, wild type) (human, UniProt O95948 330-485)
T3 sequence: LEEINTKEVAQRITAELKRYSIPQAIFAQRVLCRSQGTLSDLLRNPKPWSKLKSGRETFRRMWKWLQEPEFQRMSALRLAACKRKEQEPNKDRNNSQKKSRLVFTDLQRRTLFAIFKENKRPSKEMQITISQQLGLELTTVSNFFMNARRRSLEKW

T4: OC2 CUT domain;OC2 HOX domain (human;human, UniProt O95948;O95948 317-417;420-490, |)
T4 sequence 1: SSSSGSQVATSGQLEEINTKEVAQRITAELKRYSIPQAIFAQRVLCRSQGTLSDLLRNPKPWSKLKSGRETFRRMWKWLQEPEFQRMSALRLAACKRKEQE
T4 sequence 2: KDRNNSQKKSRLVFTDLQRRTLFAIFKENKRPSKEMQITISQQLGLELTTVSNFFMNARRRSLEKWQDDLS

T5: OC2R479 (human, UniProt O95948 330-485, R479A)
T5 sequence: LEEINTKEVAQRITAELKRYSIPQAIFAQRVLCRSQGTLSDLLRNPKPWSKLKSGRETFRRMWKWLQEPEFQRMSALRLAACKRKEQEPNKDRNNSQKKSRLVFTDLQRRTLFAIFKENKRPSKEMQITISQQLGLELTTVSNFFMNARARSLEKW

T6: OC2SQ (human, UniProt O95948 330-485, S364A;Q365A)
T6 sequence: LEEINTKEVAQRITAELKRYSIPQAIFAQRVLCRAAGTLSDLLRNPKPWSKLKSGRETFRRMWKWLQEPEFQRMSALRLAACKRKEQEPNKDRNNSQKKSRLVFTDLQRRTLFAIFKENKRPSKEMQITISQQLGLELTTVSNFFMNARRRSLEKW

T7: OC2R480 (human, UniProt O95948 330-485, R480A)
T7 sequence: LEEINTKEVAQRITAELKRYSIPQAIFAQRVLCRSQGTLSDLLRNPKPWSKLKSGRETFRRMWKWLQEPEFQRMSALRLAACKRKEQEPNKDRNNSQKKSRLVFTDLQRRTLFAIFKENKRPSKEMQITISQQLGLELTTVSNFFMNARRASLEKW

T8: OC2N (human, UniProt O95948 330-485, N476A)
T8 sequence: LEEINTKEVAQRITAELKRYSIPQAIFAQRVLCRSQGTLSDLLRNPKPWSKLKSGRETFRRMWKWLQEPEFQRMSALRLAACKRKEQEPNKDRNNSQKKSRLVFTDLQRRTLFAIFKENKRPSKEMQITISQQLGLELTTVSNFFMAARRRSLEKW


Experiments:
[1] = target: T1, ONECUT2 (OC2) residues 317-417, …; assay: ITC (implied; data not shown); absence of DNA
[2] = target: T2, OC2 CUT domain; assay: ITC; 25 C; ITC: 1X PBS pH 7.4, 0.005% Tween-20, 1 mM beta-ME, 25 C (also 12 and 30 C for heat capacity); BLI: 1X PBS, 0.5 mM TCEP, 0.005% Tween-20; details: protein: recombinant; tags: His6-MBP, removed by TEV (same protocol as OC2)
[3] = target: T3, OC2 (CUT-HOX DNA binding region, wild …); assay: as above; details: protein: recombinant; tags: His6 removed by TEV
[4] = target: T4, OC2 CUT domain;OC2 HOX domain; assay: ITC; CUT and HOX as separate polypeptides; ITC: 1X PBS pH 7.4, 0.005% Tween-20, 1 mM beta-ME, 25 C (also 12 and 30 C for heat capacity); BLI: 1X PBS, 0.5 mM TCEP, 0.005% Tween-20; details: protein: recombinant;recombinant; copies: 1;1
[5] = target: T5, OC2R479; assay: ITC; ITC: 1X PBS pH 7.4, 0.005% Tween-20, 1 mM beta-ME, 25 C (also 12 and 30 C for heat capacity); BLI: 1X PBS, 0.5 mM TCEP, 0.005% Tween-20; details: protein: recombinant; tags: His6 removed by TEV
[6] = target: T6, OC2SQ; assay: as above; details: protein: recombinant; tags: His6 removed by TEV
[7] = target: T7, OC2R480; assay: as above; details: protein: recombinant; tags: His6 removed by TEV
[8] = target: T8, OC2N; assay: as above; details: protein: recombinant; tags: His6 removed by TEV

Row | Binder | binding result [1] | Kd [2] [nM] | Kd [3] [nM] | Kd [4] [nM] | Kd [5] [nM] | Kd [6] [nM] | Kd [7] [nM] | Kd [8] [nM]
1 | ONECUT2 (OC2) residues 420-490, containing the HOX domain (protein) KDRNNSQKKSRLVFTDLQRRTLFAIFKENKRPSKEMQITISQQLGLELTTVSNFFMNARRRSLEKWQDDLS | no binding |  |  |  |  |  |  | 
2 | PEG10 promoter DNA (12mer duplex) (dsDNA) DNA 1: AGATCGATTTGC DNA 2: GCAAATCGATCT |  | 2030 ± 262 | 7 ± 2 | 1380 ± 279 | 6 | 51 ± 9 | 47 | 70 ± 11
